Assay results from PMC3509656.
Numbering of substitutions follows the chain as printed.

How the values were obtained:
Assay in all cases: EMSA
Conditions in all cases: 40 mM Tris pH 7.6, 85 mM KCl, 19% glycerol, 4 mg/mL BSA, 0.5 mg/mL calf thymus DNA, 30 min at 30 C; 6% native PAGE in 0.5x TBE
[1] = molecular target: T1, TorI-F22I F22I (Escherichia coli K-12 MG1655? (KplE1 prophage)) (UniProt Q2EES9)
T1 sequence: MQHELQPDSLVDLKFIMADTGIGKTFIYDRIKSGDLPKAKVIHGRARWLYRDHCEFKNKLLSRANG

[2] = molecular target: T2, TorI-Y28F Y28F (Escherichia coli K-12 MG1655? (KplE1 prophage)) (UniProt Q2EES9)
T2 sequence: T1 sequence with I22F, Y28F

[3] = molecular target: T3, TorI-F15L F15L (Escherichia coli K-12 MG1655? (KplE1 prophage)) (UniProt Q2EES9)
T3 sequence: T1 sequence with F15L, I22F

[4] = molecular target: T4, TorI-M17V M17V (Escherichia coli K-12 MG1655? (KplE1 prophage)) (UniProt Q2EES9)
T4 sequence: T1 sequence with M17V, I22F

[5] = molecular target: T5, TorI-A46V A46V (Escherichia coli K-12 MG1655? (KplE1 prophage)) (UniProt Q2EES9)
T5 sequence: T1 sequence with I22F, A46V

[6] = molecular target: T6, TorI-L61S L61S (Escherichia coli K-12 MG1655? (KplE1 prophage)) (UniProt Q2EES9)
T6 sequence: T1 sequence with I22F, L61S

[7] = molecular target: T7, TorI-R45Q R45Q (Escherichia coli K-12 MG1655? (KplE1 prophage)) (UniProt Q2EES9)
T7 sequence: T1 sequence with I22F, R45Q

## CATCGAGAAGGCGGTATGGTTTTTCTTTCGGCTTTGCTGCTTCAATCTGCTTAACGGTGAGCATGGGTAAAAATCCGGTGGGTAAAATTATTTTATCCACTTTTTACCCGTCATGGAGTGCGGCTGTCAACGATCTGAAGCGAACCATGACGAACTGTAAATCTACGGAATGCTTGATATTCAGGGGATTTTGCGGACTGGTACGGATGGGAGCGAACTGATAAATGGTGTCCCCTGCAGGAATCGAACCTGCAATTAGCCCTTAGGAGGGGCTCGTTATATCCATT (double strand) [KplE1 attL]
[1]
  binding: no binding
[2]
  binding: binds more weakly
[3]
  binding: binds more weakly
[4]
  binding: binds more weakly
[5]
  binding: binds more weakly
[6]
  binding: binds
[7]
  binding: binds more weakly
